Data as given in the supplement of paper PMC12764529.
± gives the half width of the 95% confidence interval.

Experiment: folding stability dG unfold (combined trypsin and chymotrypsin); higher = more stable
Method in brief: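 How resistant each design was to proteolysis was captured as K50, inferred by Bayesian fitting of sequencing counts. Unfolding free energy was then derived relative to a sequence-predicted unfolded-state K50 and a shared folded-state K50, per protease or combined. Digestion used trypsin and chymotrypsin at 11 threefold-diluted concentrations plus a no-protease condition, on mini-proteins under 80 residues without cysteine in a PA-tagged cDNA display construct. Designs were kept only when AlphaFold2 dimer inter-PAE was above 15.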

Row | Sequence | folding stability dG unfold
1 | SASEDETVETTTTTTSTFTLPNGETVTLTTTTKTTEKILPETGEVVESTTTTTTVTRTDASTTTTVATSSAG [r14_333_JUSTAS] | 1.27 ± 0.11 kcal/mol
2 | SAGGSAGGSMEEVEVFELEDGTLLVLVRVDGKEELIEIPLDDLKKLPNVKEVKIFPVKKVEKPSAGGSAGGS [r12_343_TrROS_Hall] | 1.21 ± 0.086 kcal/mol
3 | SAGGSAGWVTFDILFPGKTIEEAKEFIEQIPPEFMNNIKKIEIDEIHPVGGWYHVTLTIEVPPGMKSAGGSA [r15_244_TrROS] | 1.71 ± 0.16 kcal/mol
4 | SAGGSADLPPEVGSVTYSQNVPLDEIDEFIQEVIEKLGISPEEIKEIKVSRKTVPGSGVVSLTIVLSAGGSA [r15_934_JUSTAS] | 1.34 ± 0.13 kcal/mol
5 | SAGGKKKKPERVEVTIVLPPEILEAIKAGKPLTKEEIAKLLGLPPGAEIKIERREDGYLVIKITLPKSAGGS [r16_679_TrROS_Hall] | 2.8 ± 0.069 kcal/mol
6 | SAGSNKPIKLKAIIEKPKEKKEIEIEIDPNESIESALKKILEKLEPEWKIVIELPNGIKIEFPPSKEMYSAG [r5_77_TrMRF] | 0.91 ± 0.15 kcal/mol
7 | SKVEIEVERLPDGTLLVRATAEIPGIPGEKIELAVLVRLPAPERVEVRLLAAPPVETVTETRTYSEEEKKSA [r9_1009_TrROS_Hall] | 1.46 ± 0.17 kcal/mol
8 | SAGFEFPPGQEIEFKVQYTSPMPNPDGGWGPVTETYEITIEIVPVPPIPFKDPAQAEELRQKGLPPDDLSAG [r5_624_TrROS] | 1.23 ± 0.14 kcal/mol
9 | SAGGSAGGSAGGEMRLRISWNHPNGQPQVIEFPVGDIKEFLKKLGIDNIPPDKLTNIEPYSAGGSAGGSAGG [r7_745_TrROS] | 1.36 ± 0.094 kcal/mol
10 | SAGTLEEALEDPSNETVEIEIEIPTGEYPLSDPEKVEELAEEKKKEIEKKLKEKGKNVKIIFKVSLKPLSAG [r5_408_JUSTAS] | 0.447 ± 0.16 kcal/mol
11 | SAGGSAGGSAGGSLPFLKAKFTFTVRATVTVTVTDDDGKTTTEEFELETTVTVTLEPKPSAGGSAGGSAGGS [r4_162_TrROS_Hall] | 3.1 ± 0.2 kcal/mol
12 | SAGPPEFELVGEFEAEAPGGVPVRVRVIRLPGGDVLVVVTHPDDTVTLGFIPAETGEWHLALSFPADVLSAG [r5_750_TrMRF] | 2.58 ± 0.057 kcal/mol
13 | SAGMMVVVELTVGFEPDEIEPEEIREAIEEHAAEVEIDPNPETDILPIRVIAEPGKIEAIVDALKEAGGSAG [r5_378_TrMRF] | 0.671 ± 0.22 kcal/mol
14 | SAGGSAGGSMTTKTFKLPDGRTVTVTTEKLPNGTTKTTVTITVPGTGKTTTVPASEVPADFSGSAGGSAGGS [r12_797_JUSTAS] | 1.83 ± 0.068 kcal/mol
15 | SAGGWYERIKEWAKDKGLKVDIEPTSFDPPNGWMPFEIEFPNGKKIDITFPDSPDQMLWMIRNMIKNSAGGS [r16_153_TrROS] | 2.05 ± 0.15 kcal/mol
16 | SAGYVEPYEDGMVKIDSTFFLNDWVFKVDWWIMPNGNIMISIEPIEPIPPPPPVPIDADDPEQKEEAQQSAG [r5_715_TrROS] | 2.41 ± 0.23 kcal/mol

Row | Sequence | folding stability dG unfold
17 | SAGMVITLERTIPPTVSVSPEEAVAAIKAELEATPGVTVTAVNSVTVTPLPDGTLRVTVDIVVDRPEPSAGG [r19_396_JUSTAS] | 2.53 ± 0.06 kcal/mol
18 | SAGGGFDLEFVTPDGRRIRVEVKRILSYDPEKGYLVMEVKVTIYHPDKPIEIDGIIVFPPGFPPGAGGSAGG [r13_823_TrMRF] | 3.85 ± 0.12 kcal/mol
19 | SSMPTTVTLTNPADSTTTPLPVPSNISVETTTLPDGSTAGTVTVTDPSTGKTTTITFSGPNTLTSTSATSSA [r9_467_JUSTAS] | 0.804 ± 0.13 kcal/mol
20 | SAGGMSVKIEEKTHPETNEITINVEYDDIEKAKKEIAEKIKKENGNIPVTLVDKNGKPITIPLKELISAGGS [r8_236_JUSTAS] | 0.317 ± 0.099 kcal/mol
21 | SAGGSAGGSAGGEDPNLKSKTITKKVEKGKLDSSKNITDSSGNTSIITVENNTITITIVSSAGGSAGGSAGG [r7_97_JUSTAS] | 1.03 ± 0.2 kcal/mol
22 | SAAEKLPDGTIVIKLTEEEYKKLTEEEIEKIKEELKKEYPENVTVEIKPTKAKKIPTEPFEKGEKYNESSAG [r14_312_JUSTAS] | < -1 kcal/mol
23 | SAGGSAGGSKKIMIPGSPDTAFSTIKEWIRNGHEVPIYYYSPGNPEPVAEQEITIDEEENDELSAGGSAGGS [r12_241_TrROS] | -0.309 ± 0.2 kcal/mol
24 | SAGGPNWYLKVKIEHRYPNPDNGKWQERRMEVIIPFKDPDQLPPNALKKLIDIMQPMGFRVDVELFPWSAGG [r13_926_TrROS] | 3.76 ± 0.28 kcal/mol
25 | SAGGSAGGSAAITIEVKPGETVTITLEIEVELPPGARAADGRTFKPGEKVRVTVTLTLRVEPSAGGSAGGSA [r18_450_TrROS_Hall] | 4.26 ± 0.22 kcal/mol
26 | SAGGSASPVTVTYTDPNSTVLESVYTPSSGIVYVKYKVGDKWYLVTVKLDPSGSSVSSVTKEPLPPSAGGSA [r15_297_JUSTAS] | 1.95 ± 0.043 kcal/mol
27 | SAGGSAGGGGPGAPAVPTVSINIKIEEGEKVTIRNGTNKDEIIKSTKEEAEKKGKKVTVETVEGSAGGSAGG [r6_869_JUSTAS] | 0.883 ± 0.28 kcal/mol
28 | SWLKLPPGQKVITFQFQYPLPPGQSADDLVDNMEKELREFFGPGVKIEVNVQWDPNNGYFRVSVTIVIPKSA [r9_657_TrROS] | 1.63 ± 0.2 kcal/mol
29 | SAGGSDKVVEIPIDIPNGYTVTIRMHPDDGTARVEVSPNMPPNRVLEKIKKIFDDNGYRILPIEIVSAGGSA [r2_497_TrROS] | 1.01 ± 0.077 kcal/mol
30 | SAGGKILVPLEVLKEIEEAGLVDEVVENPDGPASLTVTSSKPAKLFGKPVIGFVRRGPDGKPVVEIIPSAGG [r13_163_TrMRF] | 0.000122 ± 0.099 kcal/mol
31 | SAGGEIEVEVLEVDPETGEVLLKITFDAEPEVIDFLVSLGFDPEHISDDGDGKVTAIVRAPPDLTIASAGGS [r16_755_TrMRF] | 2.79 ± 0.09 kcal/mol
32 | SAGGVTIEVDPGTGKVTITFPDGSSATIEVPPDERAVLFVKEGEGEVEVALVREDDPEALEKALELGSAGGS [r16_623_TrMRF] | 1.05 ± 0.2 kcal/mol
